Measurements from patent US20080027145A1, “Therapeutic Molecules and Methods for Generating and/or Selecting Same” (priority 2004, published 2008).

What was measured:
[1] = biological target: mouse Mcl-1 ΔN151 ΔC23 (mouse) (UniProt P97287); assay: Biacore solution competition against immobilised mouse wtBimBH3
mouse A1 ΔC20 (mouse) [2] = biological target: mouse A1 ΔC20 (mouse) (UniProt Q07440); assay: as above
mouse A1 ΔC20 (mouse) [3] = biological target: mouse A1 ΔC20 (mouse) (UniProt Q07440); assay: solution competition on Biacore
Bcl-2, BCl-xL and Bcl-w = assay: solution competition on Biacore

mouse Mcl-1 ΔN151 ΔC23 (mouse), sequence (P97287 other isoform, or with tags, fused parts or gaps mutant): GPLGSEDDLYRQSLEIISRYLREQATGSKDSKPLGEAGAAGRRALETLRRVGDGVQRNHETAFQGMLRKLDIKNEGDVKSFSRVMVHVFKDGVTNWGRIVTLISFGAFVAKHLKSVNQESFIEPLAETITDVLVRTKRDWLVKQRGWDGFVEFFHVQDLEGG
mouse A1 ΔC20 (mouse), sequence (Q07440 other isoform, or with tags, fused parts or gaps mutant): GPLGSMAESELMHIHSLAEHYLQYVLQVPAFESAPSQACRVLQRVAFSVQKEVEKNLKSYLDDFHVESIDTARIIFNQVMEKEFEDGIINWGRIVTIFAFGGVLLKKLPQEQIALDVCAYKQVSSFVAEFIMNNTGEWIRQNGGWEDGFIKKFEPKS

Row | Binder | IC50 [1] [nM] | IC50 (mouse A1 ΔC20 (mouse) [2]) [nM] | IC50 (mouse A1 ΔC20 (mouse) [3]) [nM] | IC50 (Bcl-2, BCl-xL and Bcl-w) [nM]
1 | HRAEVQIARKLQCIADQFHRLHTQ [m Bmf (128-151) BH3 peptide] | 1100 | 1800 | – | –
2 | NLWAAQRYGRELRRMSDEFVDSFKKG [Bad (103-128) BH3 peptide, human] | > 100000 | 15000 | 15000 | 5.3 to 30

Now those with a lower IC50 (mouse A1 ΔC20 (mouse) [2]), led by results:

Row | IC50 [1] [nM] | IC50 (mouse A1 ΔC20 (mouse) [2]) [nM] | IC50 (mouse A1 ΔC20 (mouse) [3]) [nM] | IC50 (Bcl-2, BCl-xL and Bcl-w) [nM] | Binder
3 | – | 9.3 | – | – | DIIRNIARHLAQVGDSMDRSIPPG [Bid (81-104) BH3 peptide, human]
4 | 24 | 180 | – | – | PAELEVECATQLRRFGDKLNFRQKLL [Noxa (18-43) BH3 peptide, human]
